{
  "source": "paper PMC5325477",
  "about": "“The single nucleotide variant rs12722489 determines differential estrogen receptor binding and enhancer properties of an IL2RA intronic region”",
  "key": {"[1]": {"tested_on": "ERα (endogenous, MT-2 nuclear extract) (human (MT-2 cells))", "test": "pull-down (anti-ERα, qPCR)", "settings": "normalized to 176 bp internal control DNA; EMSA: 10% glycerol, 80 mM KCl, 25 mM NaCl, 15 mM Tris pH 8.0, 0.18 mM EDTA, 1 mM MgCl2, 1.1 mM DTT, 50 uM Na3VO4, 33.3 ug/ml BSA, 150 ug/ml poly-dIdC, 20 min …"}, "[2]": {"molecular_target": "ERα (purified recombinant) (human, UniProt P03372 1-595)", "sequence (P03372 whole entry)": "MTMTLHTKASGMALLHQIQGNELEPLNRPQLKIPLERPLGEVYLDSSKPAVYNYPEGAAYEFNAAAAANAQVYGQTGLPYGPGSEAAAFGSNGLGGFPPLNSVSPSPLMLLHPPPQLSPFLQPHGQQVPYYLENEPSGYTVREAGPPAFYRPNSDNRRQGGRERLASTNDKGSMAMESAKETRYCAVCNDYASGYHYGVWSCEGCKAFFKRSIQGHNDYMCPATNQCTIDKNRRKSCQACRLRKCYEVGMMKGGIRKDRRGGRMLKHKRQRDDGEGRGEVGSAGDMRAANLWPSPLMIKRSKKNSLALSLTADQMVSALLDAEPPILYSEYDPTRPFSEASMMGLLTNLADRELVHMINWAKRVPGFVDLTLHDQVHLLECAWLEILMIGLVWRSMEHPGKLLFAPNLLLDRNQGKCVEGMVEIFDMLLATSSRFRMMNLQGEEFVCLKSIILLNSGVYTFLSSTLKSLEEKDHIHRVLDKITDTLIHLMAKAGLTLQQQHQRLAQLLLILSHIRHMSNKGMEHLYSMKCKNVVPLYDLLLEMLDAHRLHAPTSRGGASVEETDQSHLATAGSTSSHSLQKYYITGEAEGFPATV", "test": "EMSA; below detection limit; EMSA: 10% glycerol, 80 mM KCl, 25 mM NaCl, 15 mM Tris pH 8.0, 0.18 mM EDTA, 1 mM MgCl2, 1.1 mM DTT, 50 uM Na3VO4, 33.3 ug/ml BSA, 150 ug/ml poly-dIdC, 20 min room temperature, gel at 4 C; pull-down: 60 mM KCl, 12 mM HEPES pH 8.0, 4 mM Tris pH 8.0, 0.5 mM EDTA, 5% glycerol, 1 mM DTT, salmon sperm DNA, on ice, then RIPA buffer, 4 C overnight", "settings": "protein: recombinant; chain copies: 2; label: 32P (dATP, Klenow fill-in); blunt after Klenow fill-in (annealed oligos of 26 and 24 nt)"}},
  "data": [
    {"molecule": "IL2RA rs12722489 G, 189 bp PCR", "values": [
      {"measurement": "binding signal (fold vs A variant)", "setting": "[1]", "value": 2}
    ]},
    {"molecule": "IL2RA rs12722489 A, 32 bp (dsDNA) DNA 1: ACTTATCCAAGGATCTGAGTGGTCTTGGAGGG DNA 2: CCCTCCAAGACCACTCAGATCCTTGGATAAGT", "values": [
      {"measurement": "binding result", "setting": "[2]", "value": "no binding"}
    ]}
  ]
}
